Data as given in article PMC12617621 (Computational and Structural Biotechnology Journal, 2025).

T1: (NPNA)4 peptide (Plasmodium falciparum CSP repeat …)
T1 chain: NPNANPNANPNANPNA

B1: native anti-NANP Fab (Fab, V domains shown)
VH: EVQLVESGGGLVQPGRSLRLPCTASGFSFGDHAMSWVRQAPGKGLEWVGFIRKTTYGATTHYAAAVRGRFTISRDDSKSIVYLQMNSLKTEDTAVYFCTRVQLDYGPGYQYYGMDVWGQGTTVTVSS
VL: ESVLTQPPSVSGAPGQRVTISCTGMNSNIGAGYDVYWYQQLPGRAPKLLIYGNSNRPSGVPDRFSGSRSGTSASLAITGLQAEDEADYYCQSYDTSLNGWAFGGGTKLTVL
B2: G112T mutant anti-NANP Fab (Fab, V domains shown)
VH: B1 VH
VL: B1 VL

Molecular target: T1, (NPNA)4 peptide
Assay: SPR

Row | Binder | binding result
1 | B1 | binds
2 | B2 | binds
